Patent US20240270874A1 (JIANGSU HENGRUI PHARMACEUTICALS, published 2024)

T1: human KLB on CHOK1-hKLB cells (human, UniProt Q86Z14 1-1044)
T1 construct: whole, on cells; also called human KLB antigen; β-Klotho
T1 sequence (looked up): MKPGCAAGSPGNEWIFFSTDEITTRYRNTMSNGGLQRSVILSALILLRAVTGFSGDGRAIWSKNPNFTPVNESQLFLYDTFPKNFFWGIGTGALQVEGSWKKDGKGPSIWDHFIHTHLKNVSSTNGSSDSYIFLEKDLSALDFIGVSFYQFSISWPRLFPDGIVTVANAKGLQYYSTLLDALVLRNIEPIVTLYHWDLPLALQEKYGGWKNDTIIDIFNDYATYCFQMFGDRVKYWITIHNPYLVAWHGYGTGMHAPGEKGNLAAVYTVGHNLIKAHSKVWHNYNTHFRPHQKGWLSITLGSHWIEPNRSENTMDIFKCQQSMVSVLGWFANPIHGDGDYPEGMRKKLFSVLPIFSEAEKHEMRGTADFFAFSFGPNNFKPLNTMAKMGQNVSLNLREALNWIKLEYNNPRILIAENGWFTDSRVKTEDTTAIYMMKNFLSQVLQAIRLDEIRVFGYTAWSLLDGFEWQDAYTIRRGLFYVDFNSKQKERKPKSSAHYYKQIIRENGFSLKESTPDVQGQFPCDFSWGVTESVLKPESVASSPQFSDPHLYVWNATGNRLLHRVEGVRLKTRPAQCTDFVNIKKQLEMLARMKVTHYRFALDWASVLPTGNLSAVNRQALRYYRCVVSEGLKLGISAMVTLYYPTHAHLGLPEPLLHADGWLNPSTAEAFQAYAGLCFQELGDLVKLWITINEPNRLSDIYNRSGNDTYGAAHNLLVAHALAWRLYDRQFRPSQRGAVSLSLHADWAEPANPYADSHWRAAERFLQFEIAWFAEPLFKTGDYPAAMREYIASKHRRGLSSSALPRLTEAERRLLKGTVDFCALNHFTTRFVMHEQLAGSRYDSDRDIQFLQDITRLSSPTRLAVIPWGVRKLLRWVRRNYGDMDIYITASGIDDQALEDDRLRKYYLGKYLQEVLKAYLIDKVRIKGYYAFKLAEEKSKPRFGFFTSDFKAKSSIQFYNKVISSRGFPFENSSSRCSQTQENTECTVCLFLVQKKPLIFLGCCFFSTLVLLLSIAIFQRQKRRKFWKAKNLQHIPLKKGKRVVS


Biological target: T1, human KLB on CHOK1-hKLB cells
Experiment: flow cytometry on CHOK1-hKLB cells
Description: The above heavy chain variable regions were fused to the heavy chain constant region (set forth in SEQ ID NO: 22) and the light chain variable regions were fused to the light chain constant region (set forth in SEQ ID NO: 23) to construct anti-KLB antibodies, and the binding activity of the obtained antibodies for CHOK1-hKLB was detected (see Test Example 2 of the present disclosure for the experimental method).
The binding ability of the antibodies for CHOK1 cell strains CHOK1-hKLB and CHOK1-cynoKLB overexpressing human KLB and monkey KLB (see Example 1 for specific preparation procedure), respectively, was detected by flow cytometry. The specific procedure was as follows: the above cells were cultured in 10% FBS-containing IMDM medium and incubated in an incubator at 37° C. and 5% CO₂ for 2 days. The cells were then added to a cell plate at 1×10⁵ cells per well, centrifuged at 300 g for 5 min, and then washed once with 1% BSA. The antibody diluted in gradient was added to the cell plate at 100 μL per well, and the mixture was incubated at 4° C. for 1 h and washed once with 1% BSA. The diluted (1:400) APC-goat anti-human IgG Fc fluorescent secondary antibody was added at 100 μL per well, and the resulting mixture was incubated at 4° C. for 1 h. The plate was washed three times with 1% BSA, PBS was added at 100 μL per well, and the plate was read.

Row | Binder | EC50 [nM]
1 | hAb99-14 (antibody, human IgG1, kappa, L234A L235A, V domains shown, humanized mAb-99: hAb99VH1-NL + hAb99VL2; human IgG1 (L234A, L235A) / kappa constant regions) VH: EVQLVQSGAEVKKPGASVKVSCKASGYTFTNYGINWVRQAPGQRLEWMGYIYIGNLDIEYNAKFKGRVTITSDTSASTAYMELSSLRSEDTAVYYCARGRGLGHFDVWGQGTTVTVSS VL: DIQMTQSPSSLSASVGDRVTITCRASKSISKFLAWFQQKPGKTNKLLIYSGSTLQSGVPSRFSGSGSGTDFTLTISSLQPEDFATYYCQQHNEYPWTFGGGTKVEIKR | 0.6
2 | hAb99-1 (antibody, human IgG1, kappa, L234A L235A, V domains shown, humanized mAb-99: hAb99VH1 + hAb99VL1; human IgG1 (L234A, L235A) / kappa constant regions) VH: EVQLVQSGAEVKKPGASVKVSCKASGYTFTNYGINWVRQAPGQRLEWMGYIYIGNGDIEYNAKFKGRVTITSDTSASTAYMELSSLRSEDTAVYYCARGRGLGHFDVWGQGTTVTVSS VL: DIQMTQSPSSLSASVGDRVTITCRASKSISKFLAWYQQKPGKANKLLIYSGSTLQSGVPSRFSGSGSGTDFTLTISSLQPEDFATYYCQQHNEYPWTFGGGTKVEIKR | 0.61
3 | hAb99-16 (antibody, human IgG1, kappa, L234A L235A, V domains shown, humanized mAb-99: hAb99VH2-NV + hAb99VL2; human IgG1 (L234A, L235A) / kappa constant regions) VH: EVQLVQSGAEVKKPGASVKVSCKASGYTFTNYGINWVRQAPGQGLEWMGYIYIGNVDIEYNAKFKGRVTITSDTSASTAYMELSSLRSEDTAVYYCARGRGLGHFDVWGQGTTVTVSS VL: DIQMTQSPSSLSASVGDRVTITCRASKSISKFLAWFQQKPGKTNKLLIYSGSTLQSGVPSRFSGSGSGTDFTLTISSLQPEDFATYYCQQHNEYPWTFGGGTKVEIKR | 0.47
4 | hAb99-18 (antibody, human IgG1, kappa, L234A L235A, V domains shown, humanized mAb-99: hAb99VH2-QG + hAb99VL2; human IgG1 (L234A, L235A) / kappa constant regions) VH: EVQLVQSGAEVKKPGASVKVSCKASGYTFTNYGINWVRQAPGQGLEWMGYIYIGQGDIEYNAKFKGRVTITSDTSASTAYMELSSLRSEDTAVYYCARGRGLGHFDVWGQGTTVTVSS VL: DIQMTQSPSSLSASVGDRVTITCRASKSISKFLAWFQQKPGKTNKLLIYSGSTLQSGVPSRFSGSGSGTDFTLTISSLQPEDFATYYCQQHNEYPWTFGGGTKVEIKR | 0.43

Stronger by EC50, values ahead:

Row | EC50 [nM] | Binder
5 | 0.35 | hAb99-3 (antibody, human IgG1, kappa, L234A L235A, humanized mAb-99: hAb99VH1 + hAb99VL3; human IgG1 (L234A, L235A) / kappa constant regions) heavy: not shown light: DVQITQSPSSLSASVGDRVTITCRASKSISKFLAWFQQKPGKTNKLLIYSGSTLQSGVPSRFSGSGSGTDFTLTISSLQPEDFATYYCQQHNEYPWTFGGGTKVEIKRTVAAPSVFIFPPSDEQLKSGTASVVCLLNNFYPREAKVQWKVDNALQSGNSQESVTEQDSKDSTYSLSSTLTLSKADYEKHKVYACEVTHQGLSSPVTKSFNRGEC
6 | 0.33 | hAb99-11 (antibody, human IgG1, kappa, L234A L235A, humanized mAb-99: hAb99VH3 + hAb99VL3; human IgG1 (L234A, L235A) / kappa constant regions) heavy: not shown light: DVQITQSPSSLSASVGDRVTITCRASKSISKFLAWFQQKPGKTNKLLIYSGSTLQSGVPSRFSGSGSGTDFTLTISSLQPEDFATYYCQQHNEYPWTFGGGTKVEIKRTVAAPSVFIFPPSDEQLKSGTASVVCLLNNFYPREAKVQWKVDNALQSGNSQESVTEQDSKDSTYSLSSTLTLSKADYEKHKVYACEVTHQGLSSPVTKSFNRGEC
7 | 0.39 | hAb99-8 (antibody, human IgG1, kappa, L234A L235A, V domains shown, humanized mAb-99: hAb99VH2 + hAb99VL4; human IgG1 (L234A, L235A) / kappa constant regions) VH: EVQLVQSGAEVKKPGASVKVSCKASGYTFTNYGINWVRQAPGQGLEWMGYIYIGNGDIEYNAKFKGRVTITSDTSASTAYMELSSLRSEDTAVYYCARGRGLGHFDVWGQGTTVTVSS VL: DVQITQSPSSLSASVGDRVTITCRASKSISKFLAWFQEKPGKTNKLLIYSGSTLQSGIPSRFSGSGSGTDFTLTISSLQPEDFATYYCQQHNEYPWTFGGGTKVEIKR
8 | 0.41 | hAb99-15 (antibody, human IgG1, kappa, L234A L235A, V domains shown, humanized mAb-99: hAb99VH1-QG + hAb99VL2; human IgG1 (L234A, L235A) / kappa constant regions) VH: EVQLVQSGAEVKKPGASVKVSCKASGYTFTNYGINWVRQAPGQRLEWMGYIYIGQGDIEYNAKFKGRVTITSDTSASTAYMELSSLRSEDTAVYYCARGRGLGHFDVWGQGTTVTVSS VL: DIQMTQSPSSLSASVGDRVTITCRASKSISKFLAWFQQKPGKTNKLLIYSGSTLQSGVPSRFSGSGSGTDFTLTISSLQPEDFATYYCQQHNEYPWTFGGGTKVEIKR
9 | 0.36 | hAb99-10 (antibody, human IgG1, kappa, L234A L235A, humanized mAb-99: hAb99VH3 + hAb99VL2; human IgG1 (L234A, L235A) / kappa constant regions) heavy: not shown light: DIQMTQSPSSLSASVGDRVTITCRASKSISKFLAWFQQKPGKTNKLLIYSGSTLQSGVPSRFSGSGSGTDFTLTISSLQPEDFATYYCQQHNEYPWTFGGGTKVEIKRTVAAPSVFIFPPSDEQLKSGTASVVCLLNNFYPREAKVQWKVDNALQSGNSQESVTEQDSKDSTYSLSSTLTLSKADYEKHKVYACEVTHQGLSSPVTKSFNRGEC
